From patent US20250262210A1 (TRUSTEES OF COLUMBIA UNIVERSITY IN THE CITY OF NEW YORK, published 2025)

Experiments:
Experiment in all cases: IP/MS, LZTR1 R810W-FLAG, U87
VPS18 = target: T1, VPS18 (human, UniProt Q9P253 2-973)
T1 sequence (looked up): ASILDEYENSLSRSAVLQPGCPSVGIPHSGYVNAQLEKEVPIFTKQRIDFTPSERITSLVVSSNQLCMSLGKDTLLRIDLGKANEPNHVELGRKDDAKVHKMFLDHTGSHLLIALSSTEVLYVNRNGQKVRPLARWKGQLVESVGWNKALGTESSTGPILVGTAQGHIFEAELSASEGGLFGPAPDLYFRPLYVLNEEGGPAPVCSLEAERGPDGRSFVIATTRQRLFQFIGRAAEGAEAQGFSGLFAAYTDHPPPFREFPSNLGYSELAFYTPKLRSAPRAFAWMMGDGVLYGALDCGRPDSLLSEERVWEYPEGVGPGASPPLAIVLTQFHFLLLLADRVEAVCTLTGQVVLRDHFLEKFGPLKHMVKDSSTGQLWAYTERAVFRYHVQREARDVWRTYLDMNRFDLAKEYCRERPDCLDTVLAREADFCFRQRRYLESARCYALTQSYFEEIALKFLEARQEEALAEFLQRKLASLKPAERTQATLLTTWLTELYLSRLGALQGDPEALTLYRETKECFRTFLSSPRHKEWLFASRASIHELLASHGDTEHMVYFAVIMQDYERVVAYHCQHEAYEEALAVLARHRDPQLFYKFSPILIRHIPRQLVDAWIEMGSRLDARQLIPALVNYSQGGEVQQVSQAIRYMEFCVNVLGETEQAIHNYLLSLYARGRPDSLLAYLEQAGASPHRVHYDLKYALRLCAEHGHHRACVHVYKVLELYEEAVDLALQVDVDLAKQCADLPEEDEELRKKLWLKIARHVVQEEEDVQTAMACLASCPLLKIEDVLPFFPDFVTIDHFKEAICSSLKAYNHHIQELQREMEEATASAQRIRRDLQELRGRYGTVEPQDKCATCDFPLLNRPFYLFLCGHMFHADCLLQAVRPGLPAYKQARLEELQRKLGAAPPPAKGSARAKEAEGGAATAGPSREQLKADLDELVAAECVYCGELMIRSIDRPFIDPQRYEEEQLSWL
Outline: (§1)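 Extracted peptides in 3% acetonitrile/0.1% formic acid ran on a 50 cm C18 column into an Orbitrap Fusion, with MaxQuant identification and spectral counting.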

TRRAP = TRRAP (human, UniProt Q9Y4A5 2-3859, limits assumed)
Outline: as §1

USP47 = target: T2, USP47 (human, UniProt Q96K76 1-1375, limits assumed)
T2 sequence (looked up): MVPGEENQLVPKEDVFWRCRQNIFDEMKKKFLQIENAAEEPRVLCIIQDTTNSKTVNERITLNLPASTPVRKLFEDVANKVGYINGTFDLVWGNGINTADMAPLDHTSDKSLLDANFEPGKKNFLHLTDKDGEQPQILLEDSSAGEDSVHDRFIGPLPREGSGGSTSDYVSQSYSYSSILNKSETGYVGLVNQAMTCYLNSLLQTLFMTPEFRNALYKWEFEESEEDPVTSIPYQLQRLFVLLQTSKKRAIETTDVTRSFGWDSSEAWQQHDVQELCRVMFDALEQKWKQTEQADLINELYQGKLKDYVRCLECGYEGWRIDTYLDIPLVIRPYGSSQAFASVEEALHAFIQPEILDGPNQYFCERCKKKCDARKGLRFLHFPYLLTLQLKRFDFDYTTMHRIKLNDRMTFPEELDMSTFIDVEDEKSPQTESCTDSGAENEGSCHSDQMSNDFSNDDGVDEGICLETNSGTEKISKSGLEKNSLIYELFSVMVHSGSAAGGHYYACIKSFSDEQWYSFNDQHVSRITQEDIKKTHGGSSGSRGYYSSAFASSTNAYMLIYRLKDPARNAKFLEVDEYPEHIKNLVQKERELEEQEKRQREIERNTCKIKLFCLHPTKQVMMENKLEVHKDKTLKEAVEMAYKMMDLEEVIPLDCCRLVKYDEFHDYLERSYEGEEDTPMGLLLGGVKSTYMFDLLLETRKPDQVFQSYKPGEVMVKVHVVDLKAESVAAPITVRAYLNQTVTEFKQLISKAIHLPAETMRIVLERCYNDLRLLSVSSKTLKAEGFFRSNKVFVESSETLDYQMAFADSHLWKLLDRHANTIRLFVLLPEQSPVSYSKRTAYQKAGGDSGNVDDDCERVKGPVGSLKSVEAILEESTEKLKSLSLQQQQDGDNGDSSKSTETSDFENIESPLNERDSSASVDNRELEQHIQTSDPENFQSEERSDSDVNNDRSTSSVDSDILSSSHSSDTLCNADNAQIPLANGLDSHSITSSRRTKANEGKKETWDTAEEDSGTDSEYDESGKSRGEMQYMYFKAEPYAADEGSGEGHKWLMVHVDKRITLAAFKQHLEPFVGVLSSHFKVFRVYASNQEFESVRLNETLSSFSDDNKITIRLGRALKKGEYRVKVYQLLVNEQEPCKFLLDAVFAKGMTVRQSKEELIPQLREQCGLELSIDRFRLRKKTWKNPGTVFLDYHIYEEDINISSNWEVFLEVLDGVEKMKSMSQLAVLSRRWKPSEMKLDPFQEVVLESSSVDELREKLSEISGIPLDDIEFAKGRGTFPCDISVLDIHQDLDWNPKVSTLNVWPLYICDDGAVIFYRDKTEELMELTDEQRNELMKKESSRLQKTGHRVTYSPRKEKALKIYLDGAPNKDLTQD
Outline: as §1

Measured: binding result

Sequence of TRRAP (Q9Y4A5 2-3859 limits assumed): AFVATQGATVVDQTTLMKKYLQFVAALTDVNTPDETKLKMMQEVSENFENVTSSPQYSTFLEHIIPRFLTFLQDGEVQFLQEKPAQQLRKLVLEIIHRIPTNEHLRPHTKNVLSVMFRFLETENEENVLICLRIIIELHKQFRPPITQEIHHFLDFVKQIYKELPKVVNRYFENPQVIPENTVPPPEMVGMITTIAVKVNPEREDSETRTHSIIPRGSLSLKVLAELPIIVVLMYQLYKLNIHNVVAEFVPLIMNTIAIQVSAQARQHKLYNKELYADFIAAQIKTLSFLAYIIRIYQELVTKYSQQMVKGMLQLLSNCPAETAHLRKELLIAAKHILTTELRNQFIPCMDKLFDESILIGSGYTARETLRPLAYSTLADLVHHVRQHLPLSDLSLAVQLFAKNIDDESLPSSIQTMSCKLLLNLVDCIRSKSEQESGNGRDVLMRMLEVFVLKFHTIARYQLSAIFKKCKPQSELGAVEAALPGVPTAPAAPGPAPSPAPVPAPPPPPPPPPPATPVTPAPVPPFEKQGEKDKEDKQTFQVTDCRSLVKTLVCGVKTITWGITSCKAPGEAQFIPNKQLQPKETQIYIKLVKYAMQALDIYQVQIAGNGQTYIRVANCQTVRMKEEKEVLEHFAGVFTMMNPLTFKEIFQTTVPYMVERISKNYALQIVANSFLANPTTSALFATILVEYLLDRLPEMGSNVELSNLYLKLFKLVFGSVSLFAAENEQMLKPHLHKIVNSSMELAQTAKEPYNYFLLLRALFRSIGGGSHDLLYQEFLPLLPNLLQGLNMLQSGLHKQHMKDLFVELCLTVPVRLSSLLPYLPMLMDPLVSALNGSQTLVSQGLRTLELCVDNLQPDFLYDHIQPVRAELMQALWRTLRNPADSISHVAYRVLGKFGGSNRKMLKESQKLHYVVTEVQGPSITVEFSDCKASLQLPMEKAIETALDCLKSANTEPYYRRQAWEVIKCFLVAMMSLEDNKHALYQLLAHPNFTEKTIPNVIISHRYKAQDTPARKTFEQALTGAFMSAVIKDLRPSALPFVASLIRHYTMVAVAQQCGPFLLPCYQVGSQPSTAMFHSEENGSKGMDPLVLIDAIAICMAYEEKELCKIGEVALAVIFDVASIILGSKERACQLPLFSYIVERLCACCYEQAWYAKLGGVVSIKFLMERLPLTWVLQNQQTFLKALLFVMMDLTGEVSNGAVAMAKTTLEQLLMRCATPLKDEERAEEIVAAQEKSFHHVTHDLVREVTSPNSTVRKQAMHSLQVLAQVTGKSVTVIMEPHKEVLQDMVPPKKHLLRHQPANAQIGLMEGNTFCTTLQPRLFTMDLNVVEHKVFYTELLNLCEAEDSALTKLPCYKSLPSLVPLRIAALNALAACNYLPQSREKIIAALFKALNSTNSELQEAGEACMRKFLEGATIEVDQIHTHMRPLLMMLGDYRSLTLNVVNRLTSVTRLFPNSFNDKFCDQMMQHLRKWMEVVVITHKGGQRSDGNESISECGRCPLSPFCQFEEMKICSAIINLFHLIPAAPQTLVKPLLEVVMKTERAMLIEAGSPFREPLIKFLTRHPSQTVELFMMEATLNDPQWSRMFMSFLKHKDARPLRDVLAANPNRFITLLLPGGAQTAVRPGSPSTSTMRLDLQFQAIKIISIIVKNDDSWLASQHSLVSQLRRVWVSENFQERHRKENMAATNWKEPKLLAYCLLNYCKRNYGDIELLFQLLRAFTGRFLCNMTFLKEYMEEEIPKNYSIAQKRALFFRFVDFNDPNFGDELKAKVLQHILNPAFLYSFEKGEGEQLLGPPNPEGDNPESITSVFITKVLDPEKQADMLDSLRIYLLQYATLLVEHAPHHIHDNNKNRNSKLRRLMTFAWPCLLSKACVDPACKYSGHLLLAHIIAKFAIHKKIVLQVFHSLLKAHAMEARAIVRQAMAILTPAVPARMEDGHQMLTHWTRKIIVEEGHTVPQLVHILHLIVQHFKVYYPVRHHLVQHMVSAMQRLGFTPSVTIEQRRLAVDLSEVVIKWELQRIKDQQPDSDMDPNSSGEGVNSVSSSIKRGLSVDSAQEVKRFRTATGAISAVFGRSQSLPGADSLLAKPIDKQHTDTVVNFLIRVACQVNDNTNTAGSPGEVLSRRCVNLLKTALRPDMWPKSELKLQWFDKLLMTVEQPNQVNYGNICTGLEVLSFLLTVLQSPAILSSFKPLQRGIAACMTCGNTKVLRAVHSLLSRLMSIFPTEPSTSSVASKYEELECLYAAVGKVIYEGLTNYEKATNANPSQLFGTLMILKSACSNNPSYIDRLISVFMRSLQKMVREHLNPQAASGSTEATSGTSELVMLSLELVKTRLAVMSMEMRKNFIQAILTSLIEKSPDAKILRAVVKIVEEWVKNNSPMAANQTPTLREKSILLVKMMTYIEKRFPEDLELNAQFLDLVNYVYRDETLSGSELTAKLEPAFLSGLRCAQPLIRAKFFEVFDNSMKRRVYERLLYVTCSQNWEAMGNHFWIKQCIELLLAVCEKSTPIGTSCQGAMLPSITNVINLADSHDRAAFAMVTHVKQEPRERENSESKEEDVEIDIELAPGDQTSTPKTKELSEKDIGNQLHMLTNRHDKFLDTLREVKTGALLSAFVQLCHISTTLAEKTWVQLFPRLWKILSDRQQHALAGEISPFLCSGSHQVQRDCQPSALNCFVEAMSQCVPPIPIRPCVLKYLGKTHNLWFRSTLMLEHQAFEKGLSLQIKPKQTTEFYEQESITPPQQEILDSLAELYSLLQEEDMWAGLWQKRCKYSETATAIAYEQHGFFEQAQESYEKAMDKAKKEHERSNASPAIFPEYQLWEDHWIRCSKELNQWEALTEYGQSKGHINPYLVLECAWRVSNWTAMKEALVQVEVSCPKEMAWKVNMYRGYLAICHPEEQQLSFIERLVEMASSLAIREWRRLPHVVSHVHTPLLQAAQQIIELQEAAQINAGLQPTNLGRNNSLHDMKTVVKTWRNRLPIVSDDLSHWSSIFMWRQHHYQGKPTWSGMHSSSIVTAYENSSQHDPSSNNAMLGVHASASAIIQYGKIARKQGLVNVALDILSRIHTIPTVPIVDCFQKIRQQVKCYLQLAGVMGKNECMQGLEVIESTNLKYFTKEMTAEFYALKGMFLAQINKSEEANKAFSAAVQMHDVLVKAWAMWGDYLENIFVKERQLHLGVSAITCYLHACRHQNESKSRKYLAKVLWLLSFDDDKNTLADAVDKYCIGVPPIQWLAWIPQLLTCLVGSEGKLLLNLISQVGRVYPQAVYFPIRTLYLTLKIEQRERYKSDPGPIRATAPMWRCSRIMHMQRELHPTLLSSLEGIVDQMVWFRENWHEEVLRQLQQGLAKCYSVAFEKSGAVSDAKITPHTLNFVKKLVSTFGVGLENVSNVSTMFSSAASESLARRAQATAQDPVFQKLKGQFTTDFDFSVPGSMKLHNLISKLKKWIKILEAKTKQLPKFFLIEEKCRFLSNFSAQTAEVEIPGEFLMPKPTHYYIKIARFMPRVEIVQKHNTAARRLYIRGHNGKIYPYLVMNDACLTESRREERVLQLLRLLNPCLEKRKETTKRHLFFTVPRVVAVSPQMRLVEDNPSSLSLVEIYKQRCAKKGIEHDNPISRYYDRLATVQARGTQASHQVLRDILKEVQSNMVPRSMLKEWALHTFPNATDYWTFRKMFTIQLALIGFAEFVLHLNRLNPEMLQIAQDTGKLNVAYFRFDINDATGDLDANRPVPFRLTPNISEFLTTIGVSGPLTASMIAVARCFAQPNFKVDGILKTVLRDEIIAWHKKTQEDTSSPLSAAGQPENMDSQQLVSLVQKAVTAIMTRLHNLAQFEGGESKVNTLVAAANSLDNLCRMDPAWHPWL

B1: LZTR1 R810W-FLAG (other, human, UniProt Q8N653 1-840, looked up)
chain: MAGPGSTGGQIGAAALAGGARSKVAPSVDFDHSCSDSVEYLTLNFGPFETVHRWRRLPPCDEFVGARRSKHTVVAYKDAIYVFGGDNGKTMLNDLLRFDVKDCSWCRAFTTGTPPAPRYHHSAVVYGSSMFVFGGYTGDIYSNSNLKNKNDLFEYKFATGQWTEWKIEGRLPVARSAHGATVYSDKLWIFAGYDGNARLNDMWTIGLQDRELTCWEEVAQSGEIPPSCCNFPVAVCRDKMFVFSGQSGAKITNNLFQFEFKDKTWTRIPTEHLLRGSPPPPQRRYGHTMVAFDRHLYVFGGAADNTLPNELHCYDVDFQTWEVVQPSSDSEVGGAEVPERACASEEVPTLTYEERVGFKKSRDVFGLDFGTTSAKQPTQPASELPSGRLFHAAAVISDAMYIFGGTVDNNIRSGEMYRFQFSCYPKCTLHEDYGRLWESRQFCDVEFVLGEKEECVQGHVAIVTARSRWLRRKITQARERLAQKLEQEAAPVPREAPGVAAGGARPPLLHVAIREAEARPFEVLMQFLYTDKIKYPRKGHVEDVLLIMDVYKLALSFQLCRLEQLCRQYIEASVDLQNVLVVCESAARLQLSQLKEHCLNFVVKESHFNQVIMMKEFERLSSPLIVEIVRRKQQPPPRTPLDQPVDIGTSLIQDMKAYLEGAGAEFCDITLLLDGHPRPAHKAILAARSSYFEAMFRSFMPEDGQVNISIGEMVPSRQAFESMLRYIYYGEVNMPPEDSLYLFAAPYYYGFYNNRLQAYCKQNLEMNVTVQNVLQILEAADKTQALDMKRHCLHIIVHQFTKVSKLPTLWSLSQQLLLDIIDSLASHISDKQCAELGADI
notes: Stably expressed in U87 cells by lentivirus; also called LZTR1-FLAG-R810W; LZTR1 RW; not shown: FLAG tag
binds: all assays above
